According to the supplement of paper PMC6757056:
± gives the standard deviation of the averaged measurements.

B1: library; a variant is named by its letters at N, in order (parent)
chain: GCUGUCACCGGUGUAUUACCCUAGUGGUCGACCGGUCUGAUGAGUCUNNNNNNAGACGAAACAGC

Assays:
[1] = variants of: B1; test: FACS-Seq fitted mean relative fluorescence mCherry/BFP without ligand (log10 relative fluorescence); ligand: hypoxanthine (xanthine aptamer); higher = higher reporter protein expression; details: HEK293T, ligand present: no
How it was run: (§1)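 With or without ligand for 48 h, enriched HEK293T libraries carrying a lentiviral ribozyme-switch mCherry reporter and EF1α-BFP were sorted into 6 mCherry/BFP bins. Bin genomic DNA was amplified by PCR, barcoded and sequenced on MiSeq. Fluorescence was taken from normal fits to the resulting bin counts. Each fitted mean of log10(mCherry/BFP) was scaled to five spiked-in control ribozymes.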

[2] = variants of: B1; test: normalized RNA/DNA level with ligand (relative to sTRSVctl = 100) (log10 (% of sTRSVctl)); ligand: hypoxanthine (xanthine aptamer); higher = less ribozyme self-cleavage, higher mRNA level; details: ligand concentration (+) RNA-Seq: 5 mM, HEK293T, reporter: mCherry (pCS4076), ligand present: yes
Description: (§2)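 Hammerhead (sTRSV) ribozyme switch libraries with a ligand aptamer grafted on stem I and a randomized N4-6 loop II, cloned into the 3' UTR of mCherry and transiently transfected into HEK293T cells; RNA-Seq 72 h post transfection with ligand added 1 h before transfection; RNA read count / plasmid DNA read count normalized to the non-cleaving sTRSVctl (x100), log10; sequences with >100 DNA reads. FACS-Seq: lentiviral library sorted into 6 bins after 48 h ligand, log-normal fit mean of mCherry/BFP scaled to controls. Printed sequences are partial switch sequences.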

[3] = variants of: B1; test: normalized RNA/DNA level without ligand (relative to sTRSVctl = 100) (log10 (% of sTRSVctl)); ligand: hypoxanthine (xanthine aptamer); higher = less ribozyme self-cleavage, higher mRNA level; details: HEK293T, reporter: mCherry (pCS4076), ligand present: no
Description: as §2

[4] = variants of: B1; test: FACS-Seq fitted mean relative fluorescence mCherry/BFP with ligand (log10 relative fluorescence); ligand: hypoxanthine (xanthine aptamer); ligand concentration (+) FACS-Seq: 5 mM; higher = higher reporter protein expression; details: HEK293T, ligand present: yes
How it was run: as §1

Variant	FACS-Seq fitted mean (log10) [1]	normalized RNA/DNA level with ligand (log10) [2]	normalized RNA/DNA level without ligand (log10) [3]	FACS-Seq fitted mean (log10) [4]
UUAUAC	0.396 ± 0.054	1.908 ± 0.015	1.827 ± 0.0035	0.632 ± 0.0036
GGAGUG	0.301 ± 0.025	1.85 ± 0.027	1.413 ± 0.014	0.7 ± 0.032
UCAAGU	0.221 ± 0.018	1.91 ± 0.0075	1.63 ± 0.043	0.415 ± 0.046
AAUCGG	0.134 ± 0.047	1.837 ± 0.013	1.373 ± 0.006	0.58 ± 0.038
UACUUU	0.0654 ± 0.07	1.97 ± 0.038	1.921 ± 0.0072	0.288 ± 0.041
CCUAAA	0.725 ± 0.1	1.95 ± 0.035	1.84 ± 0.019	0.615 ± 0.021
CCAUAC	0.1516 ± 0.0013	1.9 ± 0.031	1.836 ± 0.011	0.283 ± 0.013
UCUCUA	0.399 ± 0.023	1.94 ± 0.058	1.743 ± 0.0054	0.493 ± 0.055
GAUACG	-0.036 ± 0.019	1.87 ± 0.035	1.488 ± 0.0049	0.37 ± 0.033
CAGGAU	0.34323 ± 0.00015	1.947 ± 0.013	1.682 ± 0.015	0.512 ± 0.028
CGCGCC	0.276 ± 0.055	1.93 ± 0.021	1.96 ± 0.044	0.445 ± 0.033
GAUUAC	0.748 ± 0.036	1.935 ± 0.0039	1.8 ± 0.049	0.749 ± 0.12
CUGUGG	0.575 ± 0.018	1.91 ± 0.027	1.45 ± 0.089	0.842 ± 0.073
UCUAUG	0.305 ± 0.056	1.906 ± 0.008	1.74 ± 0.019	0.426 ± 0.018
UCCAUG	-0.135 ± 0.032	1.88 ± 0.074	1.49 ± 0.025	-0.271 ± 0.076
UCAAAG	-0.374 ± 0.059	1.92 ± 0.072	1.68 ± 0.039	-0.184 ± 0.025
CUAAUC	0.365 ± 0.027	1.94 ± 0.037	1.9 ± 0.043	0.43119 ± 0.00031
ACGCUG	0.109 ± 0.026	1.91 ± 0.052	1.45 ± 0.031	0.566 ± 0.016
AAACCA	0.0882 ± 0.014	1.924 ± 0.014	1.81 ± 0.016	0.122 ± 0.038
UGAAAC	-0.0117 ± 0.11	1.91 ± 0.027	1.81 ± 0.059	0.2594 ± 0.0017
UAGAGG	0.0918 ± 0.042	1.75 ± 0.038	1.21 ± 0.03	0.552 ± 0.011
UAGAGU	0.11 ± 0.061	1.74 ± 0.09	1.21 ± 0.04	0.536 ± 0.099
AGAGAU	0.123 ± 0.09	1.85 ± 0.052	1.731 ± 0.0098	-0.481 ± 0.049
GACAGC	0.379 ± 0.028	1.965 ± 0.007	1.74 ± 0.084	0.554 ± 0.047

Variant	FACS-Seq fitted mean (log10) [1]	normalized RNA/DNA level with ligand (log10) [2]	normalized RNA/DNA level without ligand (log10) [3]	FACS-Seq fitted mean (log10) [4]
GACAGG	-0.206 ± 0.16	1.765 ± 0.012	1.27 ± 0.033	-0.557 ± 0.034
AACCAC	0.0153 ± 0.085	1.91 ± 0.036	1.78 ± 0.037	0.246 ± 0.02
GCUAAG	-0.184 ± 0.019	1.838 ± 0.0086	1.421 ± 0.0074	0.199 ± 0.03
UAUGGG	0.525 ± 0.08	1.857 ± 0.0095	1.41 ± 0.084	0.723 ± 0.072
AGUCCU	0.767 ± 0.076	1.92 ± 0.085	1.895 ± 0.015	0.719 ± 0.034
UGACUC	0.621 ± 0.043	2.01 ± 0.036	1.97 ± 0.033	0.678 ± 0.044
AUAAAG	0.43 ± 0.03	1.87 ± 0.024	1.51 ± 0.053	0.678 ± 0.081
UCAUGA	0.457 ± 0.055	1.885 ± 0.014	1.5 ± 0.032	0.53 ± 0.061
CAAACC	0.631 ± 0.0022	1.96 ± 0.046	1.867 ± 0.0027	0.622 ± 0.027
CGAAUA	0.459 ± 0.085	1.9 ± 0.037	1.677 ± 0.0017	0.656 ± 0.027
GUUAAU	0.528 ± 0.024	1.9 ± 0.02	1.8 ± 0.067	0.566 ± 0.0099
AUUAAU	0.51 ± 0.075	1.89 ± 0.023	1.774 ± 0.0011	0.566 ± 0.024
AUCGCC	0.477 ± 0.12	1.95 ± 0.028	1.91 ± 0.034	-0.391 ± 0.0099
UGGUUU	0.325 ± 0.015	1.95 ± 0.023	1.885 ± 0.005	0.434 ± 0.035
CUGAAG	0.454 ± 0.056	1.92 ± 0.045	1.59 ± 0.032	0.669 ± 0.026
GGCAAA	-0.106 ± 0.017	1.9638 ± 0.0011	1.83 ± 0.037	-0.0498 ± 0.0022
ACCAAU	0.003 ± 0.21	1.9 ± 0.091	1.74 ± 0.026	0.157 ± 0.038
GAAUGG	-0.206 ± 0.053	1.76 ± 0.037	1.216 ± 0.012	0.417 ± 0.012
GAAUGU	0.27 ± 0.024	1.91 ± 0.022	1.718 ± 0.0052	0.381 ± 0.07
UAUAUA	0.814 ± 0.011	1.95 ± 0.04	1.836 ± 0.018	0.838 ± 0.068
AGCGCG	0.0574 ± 0.015	1.91 ± 0.083	1.43 ± 0.051	0.359 ± 0.012
AGGAAG	-0.0152 ± 0.00091	1.63 ± 0.038	1.11 ± 0.055	0.161 ± 0.026
AUAGGA	0.382 ± 0.011	1.9 ± 0.042	1.658 ± 0.015	0.529 ± 0.017
AUUCUC	0.8249 ± 0.0011	2.01 ± 0.033	1.96 ± 0.044	0.724 ± 0.063

Variant	FACS-Seq fitted mean (log10) [1]	normalized RNA/DNA level with ligand (log10) [2]	normalized RNA/DNA level without ligand (log10) [3]	FACS-Seq fitted mean (log10) [4]
UAGCGA	0.324 ± 0.049	1.89 ± 0.041	1.65 ± 0.025	0.447 ± 0.054
AAAUUG	0.0713 ± 0.0046	1.88 ± 0.035	1.54 ± 0.049	0.431 ± 0.0093
GGAGGU	0.54 ± 0.019	1.923 ± 0.013	1.779 ± 0.01	0.48 ± 0.021
GGAGGA	-0.168 ± 0.034	1.934 ± 0.0025	1.64 ± 0.078	0.231 ± 0.0056
ACUGCA	0.637 ± 0.031	1.96 ± 0.028	1.83 ± 0.074	0.478 ± 0.012
AGGCCG	0.147 ± 0.0087	1.89 ± 0.018	1.67 ± 0.054	0.366 ± 0.045
ACAAUG	0.37 ± 0.017	1.87 ± 0.061	1.56 ± 0.053	0.638 ± 0.044
ACAAUA	0.442 ± 0.015	1.916 ± 0.017	1.81 ± 0.015	0.552 ± 0.018
UUUAGC	0.28 ± 0.015	1.95 ± 0.061	1.88 ± 0.037	0.555 ± 0.04
GUAGAG	0.148 ± 0.015	1.83 ± 0.073	1.31 ± 0.16	0.627 ± 0.068
UACGGC	0.35 ± 0.0036	1.95 ± 0.0066	1.795 ± 0.0028	0.542 ± 0.1
AUCUGA	0.724 ± 0.047	1.96 ± 0.049	1.83 ± 0.045	0.684 ± 0.016
GUUGGG	0.375 ± 0.11	1.89 ± 0.025	1.52 ± 0.029	0.635 ± 0.028
CGGUUC	0.133 ± 0.2	1.964 ± 0.01	1.79 ± 0.066	0.211 ± 0.024
UCGAGA	0.0619 ± 0.098	1.74 ± 0.046	1.16 ± 0.086	0.455 ± 0.15
GAGGCA	0.306 ± 0.0093	1.937 ± 0.018	1.9192 ± 0.0019	0.427 ± 0.021
GCGAAU	-0.142 ± 0.009	1.833 ± 0.015	1.417 ± 0.013	0.291 ± 0.022
GCGAAC	0.0198 ± 0.0047	1.711 ± 0.0065	1.13 ± 0.044	0.61 ± 0.033
GUCUCG	0.392 ± 0.059	1.94 ± 0.094	1.7 ± 0.022	0.575 ± 0.11
GAUCAC	0.374 ± 0.035	1.99 ± 0.068	1.87 ± 0.025	0.417 ± 0.071
GAUCAA	0.497 ± 0.07	1.9 ± 0.03	1.833 ± 0.0048	0.708 ± 0.034
GGGCCA	0.693 ± 0.015	1.9809 ± 0.00094	1.99 ± 0.032	0.808 ± 0.082
AGCUGG	-0.403 ± 0.022	1.91 ± 0.069	1.57 ± 0.035	-0.291 ± 0.096
CGGUGU	0.576 ± 0.076	1.965 ± 0.011	1.85 ± 0.031	0.586 ± 0.029
